Laboratory results as given in US20130164256A1 (AbbVie / Abbott, published 2013).

Legend:
Rhesus/Macaque TNF [1] = biological target: Rhesus/Macaque TNF (Rhesus/Macaque, UniProt P48094 77-233); assay: cell-based or functional assay
human TNF-α [2] = biological target: T1, human TNF-α (human, UniProt P01375 77-233); assay: cell-based or functional assay
T1 sequence (P01375 77-233 R107D limits assumed): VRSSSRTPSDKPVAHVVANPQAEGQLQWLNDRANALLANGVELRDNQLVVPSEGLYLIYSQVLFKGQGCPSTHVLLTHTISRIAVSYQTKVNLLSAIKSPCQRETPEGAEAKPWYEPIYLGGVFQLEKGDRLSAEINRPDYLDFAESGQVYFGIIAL

human TNF-α [3] = biological target: T1, human TNF-α; assay: hTNFa ELISA; IgG captured on anti-human IgG-Fc, biotinylated human TNF titrated
Rhesus/Macaque TNF [4] = biological target: Rhesus/Macaque TNF (rhesus/macaque, UniProt P48094 77-233); assay: cell-based or functional assay
human TNF-α [5] = biological target: T2, human TNF-α (human, UniProt P01375 77-233); assay: cell-based or functional assay; remark: listed apart in the source
T2 sequence (P01375 77-233 R107D limits assumed): as above

human TNF-α [6] = biological target: T2, human TNF-α; assay: ELISA: IgG captured on goat anti-human IgG-Fc, biotin-human TNF titrated, streptavidin-HRP

Chain of Rhesus/Macaque TNF (rhesus/macaque, UniProt P48094 77-233) (P48094 77-233 limits assumed): as the sequence (P01375 77-233 R107D limits assumed) above, with D31R, R44T, T72N, R138L counted along it
Chain of Rhesus/Macaque TNF (Rhesus/Macaque, UniProt P48094 77-233) (P48094 77-233 limits assumed): as the sequence (P01375 77-233 R107D limits assumed) above, with D31R, R44T, T72N, R138L counted along it

Binder | rhesus TNF neutralization IC50 (Rhesus/Macaque TNF [1]) | hu TNF neutralization IC50 (human TNF-α [2]) | EC50 (human TNF-α [3]) | rhesus TNF neutralization IC50 (L929 bioassay) (Rhesus/Macaque TNF [4]) | hu TNF neutralization IC50 (L929 bioassay) (human TNF-α [5]) | EC50 (human TNF-α [6])
hMAK195-AM16 (antibody, V domains shown, Full-length IgG; also called rHC19; hMAK195 rHC19) VH: EVQLVESGGGLVQPGGSLRLSCAASGFTFSNYGVTWVRQAPGKGLEWVSMIWADGSTHYASSVKGRFTISRDNSKNTLYLQMNSLRAEDTAVYYCAREWQHGPAAYWGQGTLVTVSS VL: DIQMTQSPSSLSASVGDRVTITCKASQAVSSAVAWYQQKPGKAPKLLIYWASTRHTGVPSRFSGSGSGTDFTLTISSLQPEDFATYYCQQHYSTPFTFGQGTKLEIKR | – | – | – | 0.803 nM | 0.0105 nM | 0.056 nM
hMAK195-AM25 (antibody, V domains shown, Full-length IgG; also called S4-24; hMAK195 S4-24) VH: EVQLVESGGGLVQPGGSLRLSCAASGFTFSNYGVTWVRQAPGKGLEWVSMIWADGSTHYASSVKGRFTISRDNSKNTLYLQMNSLRAEDTAVYYCAREWQHGPVAYWGQGTLVTVSS VL: DIQMTQSPSSLSASVGDRVTITCRASQLVSSAVAWYQQKPGKAPKLLIYWASTLHTGVPSRFSGSGSGTDFTLTISSLQPEDFATYYCQQHYRTPFTFGQGTKLEIKR | – | – | – | 0.262 nM | 0.0114 nM | 0.052 nM

Further lines, results first:

rhesus TNF neutralization IC50 (Rhesus/Macaque TNF [1]) | hu TNF neutralization IC50 (human TNF-α [2]) | EC50 (human TNF-α [3]) | rhesus TNF neutralization IC50 (L929 bioassay) (Rhesus/Macaque TNF [4]) | hu TNF neutralization IC50 (L929 bioassay) (human TNF-α [5]) | EC50 (human TNF-α [6]) | Binder
0.012 nM | 0.054 nM | 0.016 nM | – | – | – | hMAK199-AM1 (antibody, V domains shown, scFv clone J662M2S3#10 converted to full length IgG; HC plasmid pHybE-hCg1,z,non-a V2 (human IgG1), LC plasmid pHybE-hCk V3 (human kappa); also called J662M2S3#10) VH: EVQLVQSGAEVKKPGASVKVSCKASGYTFANYGIIWVRQAPGQGLEWMGWINTYTGKPTYAQKFQGRVTMTTDTSTSTAYMELSSLRSEDTAVYYCARKLFTTMDVTDNAMDYWGQGTTVTVSS VL: DIQMTQSPSSLSASVGDRVTITCRASQDISQYLNWYQQKPGKAPKLLIYYTSRLQSGVPSRFSGSGSGTDFTLTISSLQPEDFATYFCQQGNTWPPTFGQGTKLEIK
0.204 nM | 0.247 nM | 0.219 nM | – | – | – | hMAK199-AM8 (antibody, V domains shown, scFv clone J662M2S3#45 converted to full length IgG; HC plasmid pHybE-hCg1,z,non-a V2 (human IgG1), LC plasmid pHybE-hCk V3 (human kappa); also called J662M2S3#45) VH: EVQLVQSGAEVKKPGASVKVSCKASGYTFANYGIIWVRQAPGQGLEWMGWINTYTGKPTYAQKFQGRVTMTTDTSTSTAYMELSSLRSEDTAVYYCARKLFTTMDVTDNAMDYWGQGTTVTVSS VL: DIQMTQSPSSLSASVGDRVTITCRASQDISQYLNWYQQKPGKAPKLLIYYTSRLQSGVPSRFSGSGSGTDFTLTISSLQPEDFATYFCQQGNTWPPTFGQGTKLEIK
– | – | – | > 25 nM | 0.0031 nM | 0.056 nM | hMAK195-AM17 (antibody, V domains shown, Full-length IgG; also called rHC22; hMAK195 rHC22) VH: EVQLVESGGGLVQPGGSLRLSCAASGFTFSNYGVTWVRQAPGKGLEWVSMIWADGSTDYADTVKGRFTISRDNSKNTLYLQMNSLRAEDTAVYYCAREWQHGPVAYWGQGTLVTVSS VL: DIQMTQSPSSLSASVGDRVTITCKASQAVSSAVAWYQQKPGKAPKLLIYWASTRHTGVPSRFSGSGSGTDFTLTISSLQPEDFATYYCQQHYSTPFTFGQGTKLEIKR
